Measured values: US20050026833A1, “PSP-94: use for treatment of hypercalcemia and bone metastasis” (priority 2001, published 2005)
“Also recorded” adds a separate entry of the source.

B1: PSP-94: prostate secretory protein of 94 amino acids; native human seminal plasma PSP-94 (protein)
chain: SCYFIPNEGVPGDSTRKCMDLKGNKHPINSEWQTDNCETCTCYETEISCCTLVSTPVGYDKDNCQRIFKKEDCKYIVVEKKDPKKTCSVSEWII

Columns and labels:
[1] = test system: Mat Ly Lu-PTHrP skeletal metastasis; test: I.C. inoculation skeletal metastasis model, hind limb paralysis; assay type: in vivo, male Copenhagen rats
Procedure: Animal Protocols. Inbred male Copenhagen rats weighing 200-250g were obtained from Harlan Sprague-Dawley (Indianapolis, Ind.). Before inoculation, Mat Ly Lu-PTHrP tumor cells growing in serum-containing medium were washed with Hanks buffer, trypsinized, and collected by centrifugation at 1500 rpm for 5 min. […] Animals were divided into control groups which received vehicle alone (PBS: phosphate buffered saline) and experimental groups which were infused I.P. with different doses (0.1-10.0 ug/kg/day) of PSP-94 starting at the time of tumor cell inoculation (day 0) until the day of skeletal metastasis development. The time after tumor cell inoculation which was required to develop hind limb paralysis (an index of spinal cord compression due to lumbar vertebrae metastasis) was determined and percentage of starting number of animals developing hind-limb paralysis was plotted.
Alternatively, cell pellets (10×10^3 cells) were resuspended in 100ul saline and injected using 1 ml syringes into the left ventricle of rats anaesthetised with ketamine/xylazine cocktail. […] The time after tumor cell inoculation which was required to develop hind limb paralysis (an index of spinal cord compression due to lumbar vertebrae metastasis) was determined and percentage of starting number of animals developing hind-limb paralysis was plotted. In other sets of experiments, following I.C. tumor cell inoculation, control animals receiving PBS and experimental animals receiving 100.0 ug/kg/day of PCK3145 were sacrificed before the development of hind-limb paralysis (day 10 post tumor cell inoculation) and their vertebral column spanning from L1-L5 was removed and subjected to bone histomorphometric and immunohistochemical analysis as described herein.
Thus, male Copenhagen rats were inoculated via I.C. route into the left ventricle with 10×10^3 Mat Ly Lu-PTHrP cells. Starting on the time of tumor cell inoculation (day 0) animals were infused with different doses of PSP-94 (0.1-10.0 ug/kg/day) until the day of development of hind-limb paralysis as described herein. Animals receiving vehicle alone as control (CTL) or PSP-94 were monitored daily for the development of hind-limb paralysis and % animals not paralyzed at different time points in each group was calculated.
Male Copenhagen rats were inoculated with Mat Ly L u-PTHrP cells (10×10^3) into the left ventricle via I.C. injections. Starting on the day of tumor cell inoculation (day 0), experimental animals received different doses of PCK3145 (1.0-100.0 ug/kg/day) via I.P. route. To evaluate the effect of PCK3145 on delaying the development of experimental skeletal metastasis, animals were evaluated daily by monitoring of the animals for the development of hind-limb paralysis. […]

Mat Ly Lu-PTHrP tumors = test: S.C. Mat Ly Lu-PTHrP tumor growth (volume, weight) in Copenhagen rats; assay type: in vivo, male Copenhagen rats
Procedure: Control animals received PBS alone as vehicle control.
Starting from the day of tumor cell inoculation animals were infused S.C., below the tumor cell inoculation site, with different doses of PSP-94 (0.1-10.0 ug/kg/day) for up to 15 days.
In FIG. 2B male Copenhagen rats were inoculated s.c with 10^6 Mat Ly Lu-PTHrP cells. After 3 days of tumor cell inoculation, animals were injected with vehicle alone (Ctl) or different doses (0.1, 1, 10 ug/kg) of PSP-94 (nPSP) at the site of tumor cell injection. Tumor volume (expressed in cubic centimeter (cm^3)) was determined at timed intervals.
At the end of the study tumors from control (CTL), vehicle treated animals and PSP-94 treated animals were excised and weighed.

| Molecule | number of animals developing hind limb paralysis ([1]; 100.0 ug/kg/day PCK3145 I.P. from day 0, vs vehicle) | time of developing hind limb paralysis ([1]; 1.0 and 10.0 ug/kg/day PCK3145 I.P. (data not shown)) | tumor volume (Mat Ly Lu-PTHrP tumors; PCK3145 1.0-100.0 ug/kg/day S.C. for 15 days, vs vehicle) | tumor weight (Mat Ly Lu-PTHrP tumors; different doses of PCK3145, day 16 (data not shown), vs vehicle) | number of animals developing hind limb paralysis (delay in skeletal metastasis) ([1]; 10.0 ug/kg/day PSP-94 from day 0, vs vehicle) | time of hind limb paralysis ([1]; 0.1 and 1.0 ug/kg/day PSP-94 (data not shown)) | tumor volume (Mat Ly Lu-PTHrP tumors; 10.0 ug/kg/day PSP-94 as compared to 1.0 ug/kg/day PSP-94) | tumor volume (Mat Ly Lu-PTHrP tumors; PSP-94 0.1-10.0 ug/kg/day S.C. up to 15 days, vs vehicle) | tumor weight (Mat Ly Lu-PTHrP tumors; PSP-94 0.1-10.0 ug/kg/day, tumors excised day 16, vs vehicle) |
| --- | --- | --- | --- | --- | --- | --- | --- | --- | --- |
| E W Q T D N C E T C T C Y E T (EWQTDNCETCTCYET; PCK3145 (polypeptide 31-45)) | statistically significant delay | no significant effect | significant dose-dependent reduction | dose-dependent decrease |  |  |  |  |  |
| B1 |  |  |  |  | statistically significant delay; also recorded: modest (but measurable) delay | no significant effect | did not show a marked decrease | marked dose-dependent reduction | significant dose-dependent decrease |
